Measured values: PMC4014985 (Scientific Reports, 2014)

Assays:
Assay in all cases: ITC
MBP-HDAC3 = MBP-HDAC3 (UniProt O15379 1-428)
[1] = molecular target: 3-methyl purine DNA glycosylase (MPG) (UniProt P29372 18-298)
MBP-MCAF1Δ8 = molecular target: MBP-MCAF1Δ8

Chain of MBP-HDAC3 (O15379 whole entry): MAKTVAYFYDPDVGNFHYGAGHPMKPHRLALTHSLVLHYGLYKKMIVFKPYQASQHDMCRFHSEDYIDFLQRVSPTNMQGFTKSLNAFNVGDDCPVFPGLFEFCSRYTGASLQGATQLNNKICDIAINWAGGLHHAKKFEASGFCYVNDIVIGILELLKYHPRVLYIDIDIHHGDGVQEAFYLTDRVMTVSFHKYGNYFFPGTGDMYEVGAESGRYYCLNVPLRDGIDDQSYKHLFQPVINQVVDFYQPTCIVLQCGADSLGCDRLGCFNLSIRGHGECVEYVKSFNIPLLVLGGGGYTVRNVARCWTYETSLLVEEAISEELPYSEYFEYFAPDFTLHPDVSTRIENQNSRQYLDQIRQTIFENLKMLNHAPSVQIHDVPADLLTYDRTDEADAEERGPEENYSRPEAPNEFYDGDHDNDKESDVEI
Chain of 3-methyl purine DNA glycosylase (MPG) (P29372 18-298): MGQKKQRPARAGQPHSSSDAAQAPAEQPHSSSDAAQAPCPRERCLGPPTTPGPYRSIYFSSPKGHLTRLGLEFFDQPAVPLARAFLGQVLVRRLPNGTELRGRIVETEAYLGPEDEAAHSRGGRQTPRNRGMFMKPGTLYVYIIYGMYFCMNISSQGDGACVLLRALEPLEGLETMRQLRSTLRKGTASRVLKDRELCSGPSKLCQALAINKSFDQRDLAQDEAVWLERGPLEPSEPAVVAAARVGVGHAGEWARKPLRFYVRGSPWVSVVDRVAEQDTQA

B1: C-terminus of MBD1 (MBD1-c, residues D507-Q605) (domain or fragment, human, UniProt Q9UIS9 507-605, looked up)
chain: DEWTPGTAVLTSPVLVPGCPSKAVDPGLPSVKQEPPDPEEDKEENKDDSASKLAPEEEAGGAGTPVITEIFSLGGTRFRDTAVWLPRSKDLKKPGARKQ
MBP-HDAC3
  Ka: 430000 ± 0.07 M⁻¹
  Kd: 2350 ± 370 nM
  dH: -1.75 ± 0.78 kcal/mol
  stoichiometry N: 0.98 ± 0.06
[1]
  Ka: 450000 ± 0.09 M⁻¹
  Kd: 2290 ± 490 nM
  dH: -0.87 ± 0.09 kcal/mol
  stoichiometry N: 1.1 ± 0.11
MBP-MCAF1Δ8
  Ka: 160000 M⁻¹
  Kd: 6400 nM
  dH: -3.92 kcal/mol
  stoichiometry N: 1.06
